Measurements as given in patent US20050065080A1, “Use of leptin in fertility” (priority 2001, published 2005).

Key:
[1] = system: LH; experiment: Serum LH radioimmunoassay in antide-treated mice; assay type: in vivo, mouse
Experimental: Leptin induces the GnRH release from the Hypothalamus, which in turn releases FSH and LH from the Pituitary glands (Yu et al. 1997). To test if the follicle development and ovulation induced in the antide-treated C57BL mice and ob/ob mice by leptin is mediated by LH release, serum LH as well as progesterone, which is an LH-induced marker was measured. Measurement of plasma murine LH (mLH) and progesterone were carried out with specific radioimmunoassays. Progesterone was determined in mouse sera by RIA (Kohen 1975). LH was determined in mouse by a specific RIA, obtained trough the National Hormone & Pituitary Program, harbor-UCLA Medical Center (Torrance, California). The levels of mLH were below 0.2 ng/ml in all cases (Table 2). The levels of LH remained low throughout the follicular growth and ovulation in leptin-treated mice. However, it is difficult to detect the LH surge even in positive controls. Therefore, measurement of the LH-induced serum progesterone serve as a more reliable marker of circulating LH.

[2] = system: ob/ob mice; experiment: Follicular development in antide-treated ob/ob mice (hematoxylin-eosin ovarian sections); assay type: in vivo, mouse; settings: for follicular growth in ovarian sections: single agent
Experimental: The effect of leptin in follicular development was studied in ob/ob mice that were treated with the GnRH antagonist antide (Phillips et al. 1988). It is therefore expected that following administration of leptin to antide treated mice, as opposed to non-treated mice, release of LH or FSH from the pituitary gland will not occur.
8-10 week-old obese C57B1-ob/ob female mice were all injected (time 0) with antide (1.25 μg/g body weight). Mice were divided into several groups. A control group was injected with saline only. A second group was injected with murine leptin (ip,2×5 μg/g body weight purchased from R&D systems) at times 0 and 9 h. A third group was injected with pregnant mare serum gonadotropins (PMSG, 3 IU/mice, sc). A fourth group received a combination of both PMSG and leptin. Mice were sacrificed at 9, 24, and 48 and 72 h following the first treatment, the ovaries were excised, paraffin-fixed and stained with hematoxylin-eosin to visualize follicular and ovarian growth.

[3] = system: C57BL/6 mice; experiment: Ovulation induction in antide-treated prepubertal C57BL/6 mice (oocyte count); assay type: in vivo, mouse; settings: for Oocyte count in C57BL/6 mice: antide-treated, PMSG at 0 h, leptin or hCG at 48 h, oocytes counted at 72 h, range
Experimental: (§1) In the present example, ovulation was studied in ob/ob mice and in prepubertal C57BL/6 mice. All mice were treated with antide to prevent induction of LH by leptin. […] Following the various treatments, mice were sacrificed and oocytes were collected from the ampoule at 72 hours from the first injection and counted.
(§2) Similarly a group of ob/ob mice were injected with PMSG (3 IU/animal) and after 48 h with leptin (2×5 μg/g weight). […] Ovulation was monitored by counting oocytes in the oviducts under the microscope.

[4] = system: ob/ob mice; experiment: Ovulation induction in antide-treated ob/ob mice (oocyte count); assay type: in vivo, mouse; settings: for Oocyte count in ob/ob mice: antide-treated, PMSG at 0 h, leptin or hCG at 48 h, oocytes counted at 72 h, range
Experimental: as §1, §2

[5] = system: uterus; experiment: Appearance of the uterus in treated mice; assay type: in vivo, mouse; settings: for uterus distension and hyperemia: after PMSG, or PMSG followed by hCG or leptin, leptin: ob/ob mice that ovulated
[6] = system: ADAMTS-1; experiment: ADAMTS-1 expression in cultured pre-ovulatory follicles (quantitative RT-PCR); assay type: cell-based, mouse; settings: 17 h; leptin 250 ng/ml or hCG 1 IU; normalized to ribosomal protein L19; FIG. 2
Experimental: Pre-ovulatory follicles were removed, cultured and further treated for 17 h in the absence or presence of either leptin (250 ng/ml) or hCG (1 IU). Total RNA was isolated from the follicles and subjected to quantitative RT-PCR using the LightCycler™ (Roche diagnostics). The primers used for the detection of murine ADAMTS-1 transcripts were:

[7] = system: Cathepsin L; experiment: Cathepsin L expression in cultured pre-ovulatory follicles (quantitative RT-PCR); assay type: cell-based, mouse; settings: 17 h; not statistically significant
Excerpt: Total RNA was isolated from the follicles and subjected to quantitative RT-PCR with specific primers for two proteases, ADAMTS-1 and Cathepsin L. The PCR products were resolved in agarose gel electrophoresis and scanned. The RNAs levels of ADAMTS-1 were normalized to the RNAs levels of ribosomal protein
To test whether leptin can induce the expression of ADAMTS-1 and cathepsin L by acting directly on the ovary, in vitro experiments were preformed on pre-ovulatory follicles obtained from 21 days old C57BL/6 mice treated with PMSG (3 IU/animal) for 48 h. […] Total RNA was isolated from the follicles and subjected to quantitative RT-PCR using the LightCycler™ (Roche diagnostics). The primers used for the detection of murine ADAMTS-1 transcripts were: […]
The RNAs levels of ADAMTS-1 and cathepsin L detected in agarose gel electrophoresis of the PCR products were normalized to the RNAs levels of murine ribosomal protein L19

[8] = system: progesterone; experiment: Serum progesterone radioimmunoassay in ob/ob and C57BL/6 mice; assay type: in vivo, mouse; settings: PMSG at time 0, agent at 48 h, RIA at 72 h; FIG. 1
Experimental: Mice were treated with PMSG at time 0 and the indicated agent at 48 h. Progesterone was determined by RIA at 72 h in sera of C57BL/6 mice (grey bars) and of ob/ob mice (open bars).

[9] = antide + PMSG (48 h) then leptin or hCG (24 h)

## antide [reference compound]
[1]; antide-treated mice, 72 h
  Serum LH: 0.04 ± 0.01 ng/mL
[2]; antide-treated ob/ob mice
  follicular growth in ovarian sections: only early stages of follicular growth
[3]
  Oocyte count in C57BL/6 mice: 0

## pregnant mare serum gonadotropins [PMSG, reference compound]
[4]
  Oocyte count in ob/ob mice: 0 oocytes per mouse
[5]
  uterus distension and hyperemia: maximal distension
[1]; antide + PMSG, 60 h
  Serum LH: 0.2 ng/mL
[1]; antide-treated mice, 72 h
  Serum LH: 0.09 ± 0.01 ng/mL
[2]; antide-treated ob/ob mice
  follicular growth in ovarian sections: large antral follicles were formed at 72 h
[3]
  Oocyte count in C57BL/6 mice: 0

B1: leptin (protein, UniProt P41160 22-167, looked up)
Leptin: VPIQKVQDDTKTLIKTIVTRINDISHTQSVSAKQRVTGLDFIPGLHPILSLSKMDQTLAVYQQVLTSLPSQNVLQIANDLENLRDLLHLLAFSKSCSLPQTSGLQKPESLDGVLEASLYSTEVVALSRLQGSLQDILQQLDVSPEC
notes: murine leptin purchased from R&D systems; adipocyte-secreted protein encoded by the obese (ob) gene
[4]; PMSG then agent at 48 h, summary of Table 1
  ovulation (oocytes in the oviducts): ovulation was observed
[4]; [9]
  mice ovulated, ob/ob mice: 3 out of 5 mice ovulated
[4]
  Oocyte count in ob/ob mice: (range 1-6 oocytes per oocytes per mouse
[5]
  uterus distension and hyperemia: remained hyperemic, exhibiting maximal distension
[5]; antide-treated C57BL/6 mice
  uterine features: same uterine features, were also observed
[5]; leptin in the absence of PMSG
  uterus hyperemia: rendered the uterus hyperemic
[1]; antide + PMSG 48 h then leptin 12 h
  Serum LH: 0.17 ± 0 ng/mL
[1]; antide + PMSG 48 h then leptin 24 h
  Serum LH: 0.057 ± 0.01 ng/mL
[1]; antide + leptin, 9 h
  Serum LH: 0.05 ng/mL
[1]; antide + leptin, 24 h
  Serum LH: 0.06 ± 0.01 ng/mL
[1]; antide + leptin, 48 h
  Serum LH: 0.07 ± 0.04 ng/mL
[1]; antide-treated mice, 72 h
  Serum LH: 0.04 ± 0.01 ng/mL
[6]
  induction of ADAMTS-1 RNA: significant induction
[2]; antide-treated ob/ob mice, concomitant PMSG and leptin, after 72 h
  ovarian growth: an interstitial cell growth and further ovarian growth were observed
[2]; antide-treated ob/ob mice, as early as
  time at which large follicles could be observed after initiation of treatment: 9 h
[2]; antide-treated ob/ob mice
  follicular growth in ovarian sections: induced rapid follicular growth
[2]; ob/ob mice, PMSG at time 0 and leptin instead of hCG at 48 h, seen at 72 h
  corpora lutea in the ovaries: corpora lutea were also seen
[7]
  induction of Cathepsin L RNA: Marginal induction
[8]
  serum progesterone: lack of significant progesterone synthesis
[3]; [9]
  mice ovulated, C57BL/6 mice: 7 out of 7 mice
[3]
  Oocyte count in C57BL/6 mice: (2-7)
